Biological target: MERS-CoV S-protein (on 293FT effector cells) (MERS-CoV, UniProt K9N5Q8)
Experiment: cell-based or functional assay

SLTQINTTLLDLTYEMLSLQQVVKALNESYIDLKEL [Peptide 1 (WT)]
EC50 (µM), cell-cell fusion assay: 1.05 µM

Source: patent US20210332086A1 (published 2021)
